By Kd is commonly meant the concentration at which binding is half-saturated. Read a low Kd as a tighter complex.

Experiment [1] addresses T1, human STOP-1 short form (L94-K243) with C-terminal His tag, baculovirus expressed (UniProt Q96CG8 94-243). Briefly: competitive ELISA. On the technique in general: In an ELISA, binding on a coated surface is turned into a signal by an enzyme label.
Experiment [2] has as its target T2, human STOP-1, full length, C-terminal 8xHis tag (h762HIP; M1-K243-His), expressed in CHO-psgb cells (UniProt Q96CG8 31-243). Kind of experiment: competitive ELISA.
The target in experiment [3] is T2, human STOP-1, full length, C-terminal …. Briefly: competitive ELISA; F/F: coated full length, competed full length.
Experiment [4] concerns the target T1, human STOP-1 short form (L94-K243) with …. Kind of experiment: competitive ELISA; S/S: coated short form, competed short form.

T2 sequence (Q96CG8 other isoform, or with tags, fused parts or gaps): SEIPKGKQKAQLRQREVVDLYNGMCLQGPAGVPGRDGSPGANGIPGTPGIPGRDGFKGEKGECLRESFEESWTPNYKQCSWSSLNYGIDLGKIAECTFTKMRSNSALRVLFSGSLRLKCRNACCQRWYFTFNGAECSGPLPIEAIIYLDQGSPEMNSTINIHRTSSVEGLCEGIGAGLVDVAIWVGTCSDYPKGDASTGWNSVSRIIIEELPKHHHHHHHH
T1 sequence (Q96CG8 94-243): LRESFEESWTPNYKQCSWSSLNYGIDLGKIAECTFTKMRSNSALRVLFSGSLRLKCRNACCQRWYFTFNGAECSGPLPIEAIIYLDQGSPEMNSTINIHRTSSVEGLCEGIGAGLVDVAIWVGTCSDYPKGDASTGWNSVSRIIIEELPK

B1: S4 Fab (antibody)
chain 1: MKKNIAFLLASMFVFSIATNAYADIQMTQSPSSLSASVGDRVTITCRASQDVSTAVAWYQQKPGKAPKLLIYSASFLYSGVPSRFSGSGSGTDFTLTISSLQPEDFATYYCQQSYTTPPTFGQGTKVEIKRTVAAPSVFIFPPSDEQLKSGTASVVCLLNNFYPREAKVQWKVDNALQSGNSQESVTEQDSKDSTYSLSSTLTLSKADYEKHKVYACEVTHQGLSSPVTKSFNRGECGASSGMADPNRFRGKDLA
chain 2: MKKNIAFLLASMFVFSIATNAYAEVQLVESGGGLVQPGGSLRLSCAASGFTISGSWIHWVRQAPGKGLEWVAWIAPYSGATDYADSVKGRFTISADTSKNTAYLQMNSLRAEDTAVYYCAREGGLYWVFDYWGQGTLVTVSSASTKGPSVFPLAPSSKSTSGGTAALGCLVKDYFPEPVTVSWNSGALTSGVHTFPAVLQSSGLYSLSSVVTVPSSSLGTQTYICNVNHKPSNTKVDKKVEPKSCDKTHL
Regarding B1, the Kd in experiment [1] turned out to be 1.9 nM; in experiment [2] it was 13 nM; in experiment [3], 13.4 nM.

B2: S7 IgG (full-length human IgG1; LPG3-humankappaG6 and LPG4-humanHC-S7), expressed in CHO cells (antibody, V domains shown)
VH: EVQLVESGGGLVQPGGSLRLSCAASGFTISGSDIHWVRQAPGKGLEWVGRISPYGGNTNYADSVKGRFTISADTSKNTAYLQMNSLRAEDTAVYYCARVGGLKLLFDYWGQGTLVTVSS
VL: DIQMTQSPSSLSASVGDRVTITCRASQDVSTAVAWYQQKPGKAPKLLIYSASFLYSGVPSRFSGSGSGTDFTLTISSLQPEDFATYYCQQSYTTPPTFGQGTKVEIKR
As to B2, the Kd in experiment [1] amounted to 7.3 nM; in experiment [2], 41 nM; in experiment [4], 7.3 nM; in experiment [3] it was 41 nM.

B3: S4 IgG (full-length human IgG1; LPG3-humankappaG6 and LPG4-humanHC-S4), expressed in CHO cells (antibody)
light: DIQMTQSPSSLSASVGDRVTITCRASQDVSTAVAWYQQKPGKAPKLLIYSASFLYSGVPSRFSGSGSGTDFTLTISSLQPEDFATYYCQQSYTTPPTFGQGTKVEIKRTVAAPSVFIFPPSDEQLKSGTASVVCLLNNFYPREAKVQWKVDNALQSGNSQESVTEQDSKDSTYSLSSTLTLSKADYEKHKVYACEVTHQGLSSPVTKSFNRGEC
heavy: not shown
In the case of B3, the Kd in experiment [1] came out at 0.5 nM; in experiment [2], 3 nM; in experiment [4], 0.5 nM; in experiment [3] it was 3.1 nM.
